# Results as given in the nanobody polyreactivity screen of Harvey et al. (2022).
# Test: yeast display, Sf9 membrane polyspecificity reagent, FACS + sequencing; frameworks hold sequencing errors
# Method in brief: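 A nanobody's polyreactivity label depends on the gate it was sorted from. Yeast display cells were stained with 10% biotinylated, detergent-solubilized Sf9 membrane reagent for 1 hour at 4 °C, enriched on streptavidin microbeads and sorted by FACS. The low and high (top ~1%) gates were set on anti-HA fluorescence for expression and streptavidin fluorescence for reagent binding.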
row,Sequence,polyreactivity (PSR sort gate)
1,QLQLVESGGGLVQAGGSLRLSCAASGNTFYQYAMGWYRQAPGKERELVAGIRYNGGSTYYADSVKGRFTISRDNAKNTVDLQMNSLKPEDTAVYYCATKGYTGYAYRYGYWGQGTQVTVSS,high polyreactivity
2,QVQLVETGGGLVQAGGSLRLSCAASGSIQWNAMGWYRQAPGKERELVAVINTGGSTYADSVKGRFTISRDNAKNTVYLQMNMLKPEDTAVFYCAARVPFTLLKGKQYGYWGQGTQVTVSS,low polyreactivity
3,QVHLVESGGGLVQAGGSLRLSGAASGSISGLYAMGCYRQAPGKEREFVARIRWRGDSTYYADSVKGRFTISRDNAKNTVYLQMNSLKPEDTAVYYCAAGLYLFQIWFVNEYDYWGQGTQVTVSS,high polyreactivity
4,QVQLVESGGGLVQAGGSLRLSCAASGRIFKRNAMGWYRQAPGKERELVAAISYSGGSTYYADSVKGRFTISRDNAKNTVYLQMNSLKPEDTAVYYCAAKYRPRGKSSWPYRRYDYWGQGTQVTVSS,high polyreactivity
5,QVQLVESGGGLLQAGGSLRLSCAASGFTIYRYAMGWYRQATGKERELVAAITGGGGSTYYADSVKGRFTISRDNAKNTVYLQMNSLKPEDTAVYYCAVDVYHIGQYRWSYGYWGQGTQVTVSS,low polyreactivity
6,QVQLVESGGGLVQAGGSLRLSCAASGGTFWRNDMGWYRQAPGKERELVAAISYSGGTTYYADSVKGRFTISRDNAKNTVDLQMNSLKPEDTAVDYCATGGYSTRQSTFDYWGQGTQVTVSS,low polyreactivity
7,QVQLVESGGGLVQAGGSLRLSCAASGRTFPGYAMGWYRQATGKERELVAGISYRGGSTYYADSVKGRITISRDTAKNTVYFQINSLKPVDTAVYYCARDYSRHKGDYWGQGTQVTVSS,low polyreactivity
8,QVQLVESGGGLVQAGGSLRLSCAASGSTFNCYHMGWYRQAPGKEMELVAAITGSGGYTYYADSVKGRFTISRDNAKNTVYLQMKSLNPEETAVYYCAAKKVAGRRFYYWGQGTQVTVSS,low polyreactivity
9,QVQLQETGGGLVQAGGILGCAASGNISTRSEMGWYRQATGKEREFVATINSGGITNYADSVKGRFTISRDNAKNTVYLRMNSLKPEDTAVYYRAVYGYFSDPYDYWGQGTQVTVSS,low polyreactivity
10,QVQLVESGGGLVQAGGSLRLSCAASGRIFTAYAMGWYRQAPGKERELVARISKRGGSTYYADSVKGRFTISRDNAKNTVYLQMNSLKPEDTAVYYCAKSSWTFGAYNYWGQGTQVTVSS,high polyreactivity
11,QFQLVESGGGLVQAGASLRLSCAASVSTFRPYAMGWYRQAPGKERELVAAISSGDSTYYADSVKGRFTISRDNGKNTVYLQMNSLIPDDTAVYYCAKRNYWHRGGGYWGLGTQVTVSS,high polyreactivity
12,QVQLVESGGGLVQAGGSLRLRCAASGFILYPYAMGWYRQAPGKERELVAAITSRGGRTYYADSVKGRFTISRDKAKHSVYFQMNSLKPEDTAVFYCAAKRTCNYAPLKYYSWGQGTQVTVSS,high polyreactivity
13,QVQLVESGGGLVQAGGSLRLSCAASGRIIGWYAMGWYRQAPGKERELVAAISQDATRTYYADSVTGRFTISRDHAKNTVYLQMLRLKPEDTAVYNCNVVYRYAGWSYDSWGQGTQVTVSS,high polyreactivity
14,QVQLVETGGGLVQAGGSLRLSCAASGSTFVYNAMGWYRQAPGKERELVASITRSGSSTYYADSVKGRFTISRDNAKNTVYLQMNSLKPEDTAVYYCAVRYSVLSNYRYYYWGQGTQVTVSS,low polyreactivity
15,QVQLVESGGGLVQAGGSLRLSCAASGRTFPVYSMGWYRQAPGKERELVDVITTRVTSTYYADSVKGRFTISRDNAKNSVYLQMNSLKPEDTAVYYCNARTAYTGNYGPPKGGYWGQGTQVTVSS,high polyreactivity
16,QVQLVESGGGLVQAGGSLRLSCAASGSIFASYAMGWYRQAPGKERELVAAITRGGRTNYADSVKGRFTISRDNAKNTVYLQMNSLKPEDTAVYYCAKQYALVWRGYIYGYWGQGTQVTVSS,high polyreactivity
17,QDQLVESGGGLVQAGGSLRLSCAASGFIFWFYAMGWYRQAPGKERELVASISARGARTYYADSVKGRFTISRDNAKNTVYLQMNSLKPEDTAVYYCATTSPVWWRADDYWGQGTQVTVSS,high polyreactivity
18,QVHLVESGGGLVQAGGSQRLSCAASGSIFKYYAKAWYRQQPGKERELVATITNGGNTNYADSVYGRFTISRDNPKKTVYLQRNSLKPEDTAVYYCAARLWCKRYSSPTSLQRYDYWRQGTQVTVSS,high polyreactivity
19,QVQHVESAAGLVQAGCSLRLSGAASGRIFRGYAMGWSRPAHGNEWELVAGITWGGGSTYYADSVKGRFTISRDKAKNTVYLQMNSLKPEDTAVYYCNAVRPRQWWTHFGYWGQGTQVTVSS,high polyreactivity
20,QVHLVDSGGGLVQAGGSLRLSCAASGSTFYYYVMGWYRQAPGKERELVAAISSGGHPNYADSVKGRFTISRDNAKNTVYLEMNSLKPEDTAVYYCAAKARRGTLLRYGYWGQGTQVTVSS,high polyreactivity
21,QVQLVESGGGLVQAGGSLRLSCAASGFTFVFYAMGWYRQAPGKERELVAAINSGGSTYYADSVKGRFTISRDIAKNTDYLQMNSLKPEDTAVYYCAKGSYGPSAGYGRRYYYWGQGTQVTVSS,high polyreactivity
22,QFQQVESGGGLVQAGGSLRLSCAATGSIFSYTMGWYRQAPGKERELVAAITSGGITYYADSVKGRFTISRDNAKNTVYLQMNSLKPEDSAVYYCNAYYPYGLASFYYWGQGTQVTVSS,low polyreactivity

row,Sequence,polyreactivity (PSR sort gate)
1,QVQLVESGGGLVQAGGSLRLSCAASGSTFPYYTMGWYRQAPGKEREMVAAITGSGGSTYYADSVKGRFTISRDNAKNTVYLQMNSLKPEDTAVYYCAKRRWDQYFKNRMYFWGQGTQVTVSS,high polyreactivity
2,QVQLVESGGGLVQAGGSLRLSCAASGFTLPLYAMGWYRQAPGKERELVATISSGGTTYYADSVKGRFTISRDNAKNTVYLQMNSLKPEDTAVYYCNTLRQLGRPFYYWGQGTQVTVSS,high polyreactivity
3,QVQLQESGGGLVQAGGSLRLSCAASGDNLEADDMGWYRQAPGKERELVASITDGGSTNCADSMKGRSTICRDNAKITVYLQMNSLKLEDTAVYYCAAIAYPDVPTYFDYDSDYFYWGQGTLVTVSS,high polyreactivity
4,QVQLVESGGGLVQAGGSLRLSCAASGRTFYTYAMGWYRQAPGKERELVAAITVTGDSTYYADSVKGRFTISRDNAKNTVYLQMNSLKPEDTAVYYCAADDYDPWYDWTMYYWGQGTQVTVSS,high polyreactivity
5,QVQLVESGGCLDQAGGSLRLSCAASGRIFDHYAMGWYRQAPGKEMELVAAITRSGGITYYADSVKGRFTISRDNAKNTVYLQMNSLKPEDTAVYYCAALSYRYTDKFDYWGQGTQVTVSS,low polyreactivity
6,QVQLVESGGGLVQAGGSLRLSCAASGSIFTYYAMGWYRQAPGKERELVASINWSGGRTYYADSVKGRFTISRDNAKNTVYLQMNSLKPEDTAVYYCNARSAYGTGNQRGRRYYWGQGTQVTVSS,high polyreactivity
7,QVQLVESGGGLVQAGGSLRLSCAASGRIFRGNAMGWYRQARGKERELVAGISVRGGRTYYADSVKGRFTISRDNAKNTVYLQMNSLKPEDTAVYYCAAVFWDDYGKYYYWGQGTQVTVSS,high polyreactivity
8,QVQLVESGGGLVQAGGSLRLSCAASGFTFPSNAMGWYRQAPGKERELVAAISSTDSTNYADSVKGRFTISRDNAKNTVYFQMNSLKPEDTAVYYCAKRYPRYRYNTRGNDYWGQGTQVTVSS,low polyreactivity
9,QVQLVESGGGLLQAGGSLRLSCAASGGIFQGNVMGWYRQAPGKERELVASIRRGGSTNYADSVKGRFTISRDNAKNTVYLQMNSLKPEDTAVYYCAARKWVGYHVWPLREYNYWGQGTQVTVSS,low polyreactivity
10,QVQLVESGGGLVQAGGSLRLSCAASGRTFNYYAMGWYRQAPGKERELVASIRYSTGSTYYADSVKGRFTISRDNAKNTVYLQMNSLKPEDTAVYYCAARRYARASRYDYWGQGTQVTVSS,high polyreactivity
11,QVQLVESGGGLVPAGGSLRLSCAASGIIFGTYAMGWYRQEPGKERELVAAIRRTGTGTYYADSVKGRFTISRDNAKNTVYLQMNSLKPEDTAVYYCNVVRSYAYDYWGQGTQVTVSS,high polyreactivity
12,QVQLVESGGGLVQAGGSLRLSCAASAFTFYSNAMGWYRQAPGTEREVVASISASGGSTYYADSVKGRFTISRDNAKNSVYLQMNSLKPEDTAVYYCAVYWSYLFDYLGQGTQVTVSS,high polyreactivity
13,QVQLVESGGGLVQAGGSLRLSCAASGNIFVNYAMGWYRQAPGKERELVASINYNGGNTYYADSVKGRFTISRDNAKNTVYLQMNSLKPEDTAVYYCAKDGGGLLRWYTDEYDYWGQGTQVTVSS,low polyreactivity
14,QVQLVESARGLVKAGGSLLLSCAAYVSIFNHYAMGWYRQAPGKESELVARITNRSGNTYYADSVKGRFTISRDNAKNTGYLQLNSLKGEDTEVYYCAATKSLGRYNMDYWGPGTQVTVSS,low polyreactivity
15,QLQLVESGVGLVQAGGSLRLSCAPSGFTSTYYAMAWYSQAPGKERELVAAITSSGTRTYYADSVKGRFTISRENAKNTVYLQMNSLKPEDTAVYYCNAALRKGMYYWGQGTQVTVSS,high polyreactivity
16,QVQLVESGGGLVQAGGSLRLSCAASGRTFVYYAMGWYRQAPGKERELVAAITWSGGRTYYADSVKGRFTISRDNAKNTVYLQMNSLKPEDTAVYYCNRDQWPWESGYAYNYWGQGTQVTVSS,low polyreactivity
17,QVQLVESGGGLVQAGGSLRLSCAASGSIFGYYAMGWYRQAPGKERELVAAISGSGGSTYYADSVKGRFTMSRDNAKNTVYLQMNSLKPEDTAVYYCARVRGGYDKMYYWGQGTQVTVSS,high polyreactivity
18,QVQIVESCGGLVQAGGSLRLICAATGSIFLRNTMGWYRQAPAKQRELVASIDWSGGITYYADSVKGRFTISRDNAKNTVYLQMNSLKQEDTAVYFCNAVFLYPFNVPTMEYWGQGTQVTVSS,low polyreactivity
19,QVQLVESGGGLVQAGGSLRLSCAASGSTFTLNAMGWSRQAPGKERELVADITSGGGGTYYADSVKGRFTISRDNAKNTVYLQMNSLKPEDTAVYYCAKTYRPSYNPYISFGFDYWGQGTQVTVSS,low polyreactivity
20,QVQLVESGGGLVQAGGSLRLSCAASGRTFWYYDMGWYRQAPGKERELVATINNVGSTHYADSVKGRFTISRDNAKNNVYLQMNSLKPEDTSVYYCARASYGKMDYWGQGTQVTVSS,high polyreactivity
21,QVQLVESGGGLVQAGGRVRLSCAASVSTFKQYSMGWYRQATGKERELVAAITRGGRTNYAYSVKGRFTISRDNAKNTVSLQMNSLKQEDTAVYYCAKLLSGYGRWWYDYWGQGTQVTLSS,high polyreactivity
